B1: NADK2 expressed in HEK293E cells (full-length human NADK2 cDNA with a C-terminal FLAG-tag) (enzyme, UniProt Q4G0N4 63-442, looked up)
chain: DGGFRPSRVVVVAKTTRYEFEQQRYRYAELSEEDLKQLLALKGSSYSGLLERHHIHTKNVEHIIDSLRNEGIEVRLVKRREYDEETVRWADAVIAAGGDGTMLLAASKVLDRLKPVIGVNTDPERSEGHLCLPVRYTHSFPEALQKFYRGEFRWLWRQRIRLYLEGTGINPVPVDLHEQQLSLNQHNRALNIERAHDERSEASGPQLLPVRALNEVFIGESLSSRASYYEISVDDGPWEKQKSSGLNLCTGTGSKAWSFNINRVATQAVEDVLNIAKRQGNLSLPLNRELVEKVTNEYNESLLYSPEEPKILFSIREPIANRVFSSSRQRCFSSKVCVRSRCWDACMVVDGGTSFEFNDGAIASMMINKEDELRTVLLEQ
B2: His-NADK2^V334R (enzyme, human, UniProt Q4G0N4 61-442, looked up)
chain: RADGGFRPSRVVVVAKTTRYEFEQQRYRYAELSEEDLKQLLALKGSSYSGLLERHHIHTKNVEHIIDSLRNEGIEVRLVKRREYDEETVRWADAVIAAGGDGTMLLAASKVLDRLKPVIGVNTDPERSEGHLCLPVRYTHSFPEALQKFYRGEFRWLWRQRIRLYLEGTGINPVPVDLHEQQLSLNQHNRALNIERAHDERSEASGPQLLPVRALNEVFIGESLSSRASYYEISVDDGPWEKQKSSGLNLCTGTGSKAWSFNINRVATQAVEDRLNIAKRQGNLSLPLNRELVEKVTNEYNESLLYSPEEPKILFSIREPIANRVFSSSRQRCFSSKVCVRSRCWDACMVVDGGTSFEFNDGAIASMMINKEDELRTVLLEQ
B3: His-NADK2^S188A (enzyme, human, UniProt Q4G0N4 61-442, looked up)
chain: RADGGFRPSRVVVVAKTTRYEFEQQRYRYAELSEEDLKQLLALKGSSYSGLLERHHIHTKNVEHIIDSLRNEGIEVRLVKRREYDEETVRWADAVIAAGGDGTMLLAASKVLDRLKPVIGVNTDPERAEGHLCLPVRYTHSFPEALQKFYRGEFRWLWRQRIRLYLEGTGINPVPVDLHEQQLSLNQHNRALNIERAHDERSEASGPQLLPVRALNEVFIGESLSSRASYYEISVDDGPWEKQKSSGLNLCTGTGSKAWSFNINRVATQAVEDVLNIAKRQGNLSLPLNRELVEKVTNEYNESLLYSPEEPKILFSIREPIANRVFSSSRQRCFSSKVCVRSRCWDACMVVDGGTSFEFNDGAIASMMINKEDELRTVLLEQ
B4: His-NADK2^R378Q (enzyme, human, UniProt Q4G0N4 61-442, looked up)
chain: RADGGFRPSRVVVVAKTTRYEFEQQRYRYAELSEEDLKQLLALKGSSYSGLLERHHIHTKNVEHIIDSLRNEGIEVRLVKRREYDEETVRWADAVIAAGGDGTMLLAASKVLDRLKPVIGVNTDPERSEGHLCLPVRYTHSFPEALQKFYRGEFRWLWRQRIRLYLEGTGINPVPVDLHEQQLSLNQHNRALNIERAHDERSEASGPQLLPVRALNEVFIGESLSSRASYYEISVDDGPWEKQKSSGLNLCTGTGSKAWSFNINRVATQAVEDVLNIAKRQGNLSLPLNRELVEKVTNEYNESLLYSPEEPKILFSIQEPIANRVFSSSRQRCFSSKVCVRSRCWDACMVVDGGTSFEFNDGAIASMMINKEDELRTVLLEQ
B5: His-NADK2^K76Q (enzyme, human, UniProt Q4G0N4 61-442, looked up)
chain: RADGGFRPSRVVVVAQTTRYEFEQQRYRYAELSEEDLKQLLALKGSSYSGLLERHHIHTKNVEHIIDSLRNEGIEVRLVKRREYDEETVRWADAVIAAGGDGTMLLAASKVLDRLKPVIGVNTDPERSEGHLCLPVRYTHSFPEALQKFYRGEFRWLWRQRIRLYLEGTGINPVPVDLHEQQLSLNQHNRALNIERAHDERSEASGPQLLPVRALNEVFIGESLSSRASYYEISVDDGPWEKQKSSGLNLCTGTGSKAWSFNINRVATQAVEDVLNIAKRQGNLSLPLNRELVEKVTNEYNESLLYSPEEPKILFSIREPIANRVFSSSRQRCFSSKVCVRSRCWDACMVVDGGTSFEFNDGAIASMMINKEDELRTVLLEQ
B6: His-NADK2^K304Q (enzyme, human, UniProt Q4G0N4 61-442, looked up)
chain: RADGGFRPSRVVVVAKTTRYEFEQQRYRYAELSEEDLKQLLALKGSSYSGLLERHHIHTKNVEHIIDSLRNEGIEVRLVKRREYDEETVRWADAVIAAGGDGTMLLAASKVLDRLKPVIGVNTDPERSEGHLCLPVRYTHSFPEALQKFYRGEFRWLWRQRIRLYLEGTGINPVPVDLHEQQLSLNQHNRALNIERAHDERSEASGPQLLPVRALNEVFIGESLSSRASYYEISVDDGPWEKQQSSGLNLCTGTGSKAWSFNINRVATQAVEDVLNIAKRQGNLSLPLNRELVEKVTNEYNESLLYSPEEPKILFSIREPIANRVFSSSRQRCFSSKVCVRSRCWDACMVVDGGTSFEFNDGAIASMMINKEDELRTVLLEQ
B7: His-NADK2^Δ78–114 (aa 61–442) (enzyme, human, UniProt Q4G0N4 61-442, looked up)
chain: RADGGFRPSRVVVVAKTHHIHTKNVEHIIDSLRNEGIEVRLVKRREYDEETVRWADAVIAAGGDGTMLLAASKVLDRLKPVIGVNTDPERSEGHLCLPVRYTHSFPEALQKFYRGEFRWLWRQRIRLYLEGTGINPVPVDLHEQQLSLNQHNRALNIERAHDERSEASGPQLLPVRALNEVFIGESLSSRASYYEISVDDGPWEKQKSSGLNLCTGTGSKAWSFNINRVATQAVEDVLNIAKRQGNLSLPLNRELVEKVTNEYNESLLYSPEEPKILFSIREPIANRVFSSSRQRCFSSKVCVRSRCWDACMVVDGGTSFEFNDGAIASMMINKEDELRTVLLEQ
B8: His-NADK2^Δ231–266 (aa 61–442) (enzyme, human, UniProt Q4G0N4 61-442, looked up)
chain: RADGGFRPSRVVVVAKTTRYEFEQQRYRYAELSEEDLKQLLALKGSSYSGLLERHHIHTKNVEHIIDSLRNEGIEVRLVKRREYDEETVRWADAVIAAGGDGTMLLAASKVLDRLKPVIGVNTDPERSEGHLCLPVRYTHSFPEALQKFYRGEFRWLWRQRIRLYLEGTGPQLLPVRALNEVFIGESLSSRASYYEISVDDGPWEKQKSSGLNLCTGTGSKAWSFNINRVATQAVEDVLNIAKRQGNLSLPLNRELVEKVTNEYNESLLYSPEEPKILFSIREPIANRVFSSSRQRCFSSKVCVRSRCWDACMVVDGGTSFEFNDGAIASMMINKEDELRTVLLEQ
B9: human NADK2 (aa 61–442 with an N terminus His-tag) (enzyme, UniProt Q4G0N4 61-442, looked up)
chain: RADGGFRPSRVVVVAKTTRYEFEQQRYRYAELSEEDLKQLLALKGSSYSGLLERHHIHTKNVEHIIDSLRNEGIEVRLVKRREYDEETVRWADAVIAAGGDGTMLLAASKVLDRLKPVIGVNTDPERSEGHLCLPVRYTHSFPEALQKFYRGEFRWLWRQRIRLYLEGTGINPVPVDLHEQQLSLNQHNRALNIERAHDERSEASGPQLLPVRALNEVFIGESLSSRASYYEISVDDGPWEKQKSSGLNLCTGTGSKAWSFNINRVATQAVEDVLNIAKRQGNLSLPLNRELVEKVTNEYNESLLYSPEEPKILFSIREPIANRVFSSSRQRCFSSKVCVRSRCWDACMVVDGGTSFEFNDGAIASMMINKEDELRTVLLEQ

Target: the molecule itself
Assay: cross-linking

Stoichiometry N, 2:
B1

Target: the molecule itself
Assay: mass photometry

Stoichiometry N, 2:
B2
B3
B4
B5
B6
B7
B8

Target: the molecule itself
Assay: SAXS

Stoichiometry N, 2:
B9

From article PMC10353453 (Molecular cell, 2022)
